Where a chain is given by its changes, count along the chain named.

The text below walks through data of paper PMC3442271.

Data set [1] addresses T1, Endonuclease III (Endo III);XerC;XerD (Escherichia coli;Vibrio cholerae;Vibrio …, UniProt P0AB83;Q9KVL4;Q9KPE9 1-211;1-311;1-302, ||).
T1 sequence 1: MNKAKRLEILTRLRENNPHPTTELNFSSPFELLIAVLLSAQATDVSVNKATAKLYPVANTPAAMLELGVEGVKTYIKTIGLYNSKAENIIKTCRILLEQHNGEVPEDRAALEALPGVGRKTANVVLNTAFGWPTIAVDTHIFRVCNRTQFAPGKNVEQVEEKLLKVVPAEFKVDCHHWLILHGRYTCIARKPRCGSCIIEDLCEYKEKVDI
T1 sequence 2: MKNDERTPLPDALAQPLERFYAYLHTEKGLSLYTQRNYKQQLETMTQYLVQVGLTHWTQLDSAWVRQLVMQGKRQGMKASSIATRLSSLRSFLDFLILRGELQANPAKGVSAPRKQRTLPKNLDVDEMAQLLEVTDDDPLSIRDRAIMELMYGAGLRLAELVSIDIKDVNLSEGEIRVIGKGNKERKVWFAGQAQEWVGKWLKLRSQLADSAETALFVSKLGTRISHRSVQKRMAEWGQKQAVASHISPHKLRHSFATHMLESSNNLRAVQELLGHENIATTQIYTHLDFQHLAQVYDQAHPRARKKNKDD
T1 sequence 3: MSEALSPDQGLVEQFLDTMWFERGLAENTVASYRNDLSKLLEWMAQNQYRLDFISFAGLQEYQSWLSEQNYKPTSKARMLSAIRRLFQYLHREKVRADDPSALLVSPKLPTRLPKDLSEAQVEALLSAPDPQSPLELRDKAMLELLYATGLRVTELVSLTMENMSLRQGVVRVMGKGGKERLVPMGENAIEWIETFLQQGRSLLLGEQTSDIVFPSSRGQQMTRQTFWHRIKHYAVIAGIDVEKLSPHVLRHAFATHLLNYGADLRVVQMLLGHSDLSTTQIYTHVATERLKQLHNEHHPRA
In words: footprinting.

The target in data set [2] is T2, Endonuclease III (Endo III) (Escherichia coli, UniProt P0AB83 1-211).
T2 sequence: T1 sequence 1
In words: EMSA. Background: Mobility shift assays separate free from complexed probe on a gel.

The next data set addresses T3, XerC;XerD (Vibrio cholerae;Vibrio cholerae, UniProt Q9KVL4;Q9KPE9 1-311;1-302, |).
T3 sequence 1: T1 sequence 2
T3 sequence 2: T1 sequence 3
The experiment in a line: footprinting.

For data set [3], the target named is T2, Endonuclease III (Endo III). The experiment in a line: competition.

B1: attP(+)/dif1 pseudo-HJ (structured_DNA)
DNA 1: GATCCGTGATCACGCTGAACGCGTTTTAGCAGTGCGCATTATGTGGCGCGGCATTATGTTGAGGGGCCTAACGCCTAAAGCGGCCGCCTA
DNA 2: ATCGTAGGCGGCCGCTTTAGGCGTTAGGCCCCGTAACATAATGGCGTATAATACGCATTCGACCGTTGCCGGATCCG
DNA 3: CGATCGGATCCGGCAACGGTCGAGTGCGTATTATGTATGTTATGTTAAATGACATCCTGAGATCTCGA
DNA 4: TCGATCGAGATCTCAGGATGTCATTTAACATAACATACATAATGCGCACTGCTAAAACGCGTTCAGCGTGATCACG
Regarding B1, the binding result (in data set [1]; in data set [2]; with XerC;XerD) was “binds” throughout.

B2: dif1/dif1 HJ (structured_DNA)
DNA 1: GATCCGTGATCACGCTGAACGCGTTTTAGCAGTGCGCATTATGTATGTTATGTTAAATGGCCTAACGCCTAAAGCGGCCGCCTA
DNA 2: ATCGTAGGCGGCCGCTTTAGGCGTTAGGCCATTTAACATAACATACATAATGCGCACTCGACCGTTGCCGGATCCG
DNA 3: B1 DNA 3 with T29C
DNA 4: B1 DNA 4
As to B2, in data set [3], the binding result is “binds”.
